Measured values reported in publication PMC9481538, “The interaction between LC8 and LCA5 reveals a novel oligomerization function of LC8 in the ciliary-centrosome system” (Scientific Reports, 2022).

Key:
LC8 [1] = target: T1, LC8 (Homo sapiens, UniProt Q96FJ2); test: isothermal titration calorimetry, sLCA5 fragments titrated with LC8; format: binding; conditions: PBS pH 7.4, 1 mM TCEP, 37 °C, titrated with LC8, result in words
T1 construct: 6xHis (N); made in house; host or cells: E. coli BL21 (DE3) Rosetta
T1 sequence (Q96FJ2 whole entry, the tested form may be a part): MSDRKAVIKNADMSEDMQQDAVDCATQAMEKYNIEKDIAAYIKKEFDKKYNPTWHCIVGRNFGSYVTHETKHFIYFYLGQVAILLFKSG
Method: LC8 and MBP-fused LCA5 constructs were prepared in PBS supplemented with 1 mM TCEP. Before measurement, protein samples were dialyzed overnight in PBS pH 7.4 (Orange Scientific, OrDial D14 membrane). Peptides were diluted from stock with the buffer used for dialysis. The concentration of samples was determined based on absorbance at 280 nm in the case of proteins, and 205 nm for the peptide. Experiments were performed using MicroCal PEAQ-ITC (Malvern Panalytical), LCA5 peptides were measured at 25 °C, proteins were analyzed at 37 °C. Lebercilin peptide was injected into the cell 18 times 2 μl volumes, with 5 min timing between injections. In case of the protein, LCA5 was placed in the sample cell, and LC8 was injected during 37 injections, 1 μl each. The results were evaluated using MicroCal PEAQ-ITC Analysis Software.

GST-fused LC8 = test: GST pull-down of LC8 and sLCA5; format: binding; conditions: GST-LC8 bait, MBP-, 6x-His-fused sLCA5 prey, PBS, 1 mM DTT, room temperature; result in words
Method: For the pull-down experiments, GST-fused LC8 was used as bait, and MBP-, 6x-His-fused LCA5 variants as prey. For controls, GST and MBP were used. Proteins were expressed in 100 ml cultures of E. coli BL21 (DE3) Rosetta cells as described above. Cells were harvested, resuspended in 5 ml PBS supplemented with 1 mg/ml lysozyme and 1 mM DTT, sonicated and clarified by centrifugation. 20 μl of Glutathione Sepharose 4B (Macherey–Nagel) (75%) resin was used for each experiment. Baits were incubated with the resin for 1 h at room temperature, then washed with PBS supplemented with 1 mM DTT. Prey proteins were added and incubated for one hour. The beads were washed and eluted by boiling in a 2 × SDS sample buffer and analyzed in tricine SDS page according to the protocol of Schagger et al[43].

CD thermal denaturation = format: physicochemical; conditions: CD at 222 nm, 10–80 °C
Method: CD experiments were carried out on a Jasco J-810 spectropolarimeter using a 1 mm quartz cuvette. For the spectra of the individual constructs, 8 scans were recorded and averaged between 200 nm or 190 nm and 260 nm (in continuous scanning mode, data pitch: 0.2 nm, scanning speed: 50 nm/min, response: 2 s, bandwidth: 2 nm). sLCA5-WT and the mutants were measured at 0.1 mg/ml concentration. 1.2 μM LCA5 and 6 μM LC8 were complexed and analyzed. The spectra of LC8 at a concentration of 6 μM was recorded under the same experimental conditions as described before and subtracted from the individual CD spectra of the sLCA5-LC8 complexes. The baseline subtracted data were evaluated using the BeStSel web-server (http://bestsel.elte.hu/index.php)[46],[47]. Thermal denaturation experiments were recorded at 222 nm between 10 and 80 °C using 1 °C/min heating rate. The thermal denaturation profile was fitted according to the Gibbs–Helmholtz equation assuming a two-state model as described by Shih et al[48]. After fitting, the curves were normalized by the following equation. y=-m^∘-An-T∗mn/Ad-An+md-mnT-1 where y is the ratio of native and unfolded state, An and Ad are the initial values of the Gibbs–Helmholtz equation belong to the native and denatured state, mn and md are the slopes belong to the An and Ad values, m° is the measured CD value in millidegree and T is the temperature in °C.

LC8 [2] = target: T1, LC8; test: SDS-PAGE densitometric analysis of gel filtration fractions (sLCA5:LC8 molar ratio); format: binding; conditions: SDS-PAGE densitometry; result in words
Method: For analytical gel filtration a Superose 6 Increase 10/300 (Cytiva) was used with an effective resolution between 5–5000 kDa range and a void volume above 5000 kDa. The column was equilibrated in DPBS supplemented with 200 μM TCEP. The calibration curve was fitted on the chromatogram of gel filtration standard mix (BioRad) with the addition of Dextran Blue to determine the void volume. 100 μl of LCA5 purified protein or LCA5-LC8 complex was injected at the concentration of 30 μM for LCA5 and 150 μM for LC8, with a flow rate of 500 μl/min immediately or after 60 min of incubation at 37 °C. For densitometric analysis, fractions were collected and 200 μl of samples were precipitated in 1.8 ml 96% ethanol at − 80 °C for 2 h. The samples were centrifugated for 30 min at 14,000 g, and dissolved in 15 μl of SDS sample buffer. 10 μl of each sample was run on Tricine-SDS gel. The calibration of the densitometry was performed on samples of known molar ratio of sLCA5 construct and LC8 (see the original gel used for calibration on Suplementary Fig. S16). Data evaluation was performed by using Origin 8 software and Fiji ImageJ software.

B1: sLCA5-ΔCQS-ΔVQT: double mutant sLCA5, both LC8 binding motifs mutated (protein)
chain: DTDLVTKRILSARLLKINELQNEVSELQVKLAELLKENKSLKRLQYRQEKALNKFEDAENEISQLIFRHNNEITALKERLRKSQEKERATEKRVKDTESELFRTKFSLQKLKEISEARHLPERDDLAKKLVSAELKLDDTERRIKELSKNLELSTNSFQRQLLAERKRAYEAHDENKVLQKEVQRLYHKLKEKERELDIKNIYSNRLPKSSPNKEKELALRKNAAAAADFADLCTKGAAAMEDFKPEEYPLTPETIMCYENKWEEPGHLTLDLQSQKQDRHGEAGILNPIMEREEKFVTDEELHVVKQEVEKLEDEWEREELDKKQKEKASLLER
modifications: left off: MBP, N-terminal, kept | His6, C-terminal, kept
LC8 [1]
  measurable interaction with LC8 (ITC): did not show any measurable interaction
GST-fused LC8
  interaction with LC8 (GST pull-down): abolished the interaction with LC8
CD thermal denaturation; 1 °C/min, two-state fit, without or with LC8 as label shows
  melting temperature Tm: 40,7 °C
CD thermal denaturation; sLCA5 in complex with LC8 vs without
  increase in melting temperature on LC8 binding: no similar increase was observed
LC8 [2]
  LC8 content of fraction: unable to bind LC8
